# Measurements published in article PMC4551323 (Molecular Biology of the Cell, 2015).
# B1: myc-tagged ALK5 (type I TGF-β receptor, TβRI) (receptor)
# chain: LQCFCHLCTKDNFTCVTDGLCFVSVTETTDKVIHNSMCIAEIDLIPRDRPFVCAPSSKTGSVTTTYCCNQDHCNKIELPTTVKSSPGLGPVELAAVIAGPVCFVCISLMLMVYICHNRTVIHHRVPNEEDPSLDRPFISEGTTLKDLIYDMTTSGSGSGLPLLVQRTIARTIVLQESIGKGRFGEVWRGKWRGEEVAVKIFSSREERSWFREAEIYQTVMLRHENILGFIAADNKDNGTWTQLWLVSDYHEHGSLFDYLNRYTVTVEGMIKLALSTASGLAHLHMEIVGTQGKPAIAHRDLKSKNILVKKNGTCCIADLGLAVRHDSATDTIDIAPNHRVGTKRYMAPEVLDDSINMKHFESFKRADIYAMGLVFWEIARRCSIGGIHEDYQLPYYDLVPSDPSVEEMRKVVCEQKLRPNIPNRWQSCEALRVMAKIMRECWYANGAARLTALRIKKTLSQLSQQEGIKM
# Molecular target: HA-tagged type II TGF-β receptor (TβRII) (human, UniProt P37173 23-567)
# Sequence (P37173 23-567): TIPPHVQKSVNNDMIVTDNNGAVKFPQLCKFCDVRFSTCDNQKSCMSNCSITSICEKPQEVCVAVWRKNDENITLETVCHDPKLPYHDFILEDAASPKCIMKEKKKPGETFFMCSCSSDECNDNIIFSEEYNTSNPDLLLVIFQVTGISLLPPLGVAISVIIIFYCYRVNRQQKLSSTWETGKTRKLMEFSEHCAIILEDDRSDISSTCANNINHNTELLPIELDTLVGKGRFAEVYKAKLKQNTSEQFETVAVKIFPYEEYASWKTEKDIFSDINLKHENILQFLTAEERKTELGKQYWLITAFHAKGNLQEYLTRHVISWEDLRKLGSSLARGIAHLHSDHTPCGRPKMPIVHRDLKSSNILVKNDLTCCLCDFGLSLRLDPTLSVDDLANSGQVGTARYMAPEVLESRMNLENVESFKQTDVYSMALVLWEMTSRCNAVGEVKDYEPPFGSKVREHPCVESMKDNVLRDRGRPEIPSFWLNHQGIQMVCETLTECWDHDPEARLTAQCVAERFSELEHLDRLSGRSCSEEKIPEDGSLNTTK
# Experiment: patch/FRAP
binder,measurement,value
B1,fold increase of complex formation with TGF-β1 against no ligand,~2 fold
